Results published in patent US11866736B2, “Protein prostheses for mitochondrial diseases or conditions” (The General Hospital Corporation, priority 2015, dated 2024).

Tests used:
[1] = Enzymatic assay of NAD(P)H oxidase activity, NADH as substrate (absorbance at 340); type: biochemical
Experimental: FIGS. 1A-1E illustrate the biochemical properties of LbNOX with a C-terminal FLAG tag and a cleavable N-terminal hexahistidine (Hisx6) tag produced by overexpression in E. coli. Purified LbNOX-FLAG has a yellow color and a UV-visible absorption spectrum (λmax=371 and 444 nm) similar to other FAD-containing enzymes, which can be reduced upon the addition of sodium dithionite (FIG. 1B). (FIG. 1A) Reaction catalyzed by LbNOX. (FIG. 1B) UV-visible spectrum of purified LbNOX. Protein (82.8 μM FAD active sites) in 50 mM NaPi pH 7.5, 150 mM NaCl after purification in oxidized form (solid line) and after addition of excess of sodium dithionite, reduced form (dashed line). Inset: SDS-PAGE of purified LbNOX. (FIG. 1C) Simultaneous measurement of NADH and oxygen consumption by LbNOX as assayed in 50 mM NaPi pH 7.5, 150 mM NaCl at 28° C. NADH (500 μM) and LbNOX (1.8 μg) were added as indicated by arrows. (FIG. 1D) Michaelis-Menten analysis of the NAD(P)H oxidase activity of recombinant LbNOX. Inset: values for Vmax and KM for NADH represent the mean±S.D. (error bars) from four independent experiments. (FIG. 1E) The crystal structure of LbNOX. The FAD in stick representation and bound oxygen in red spheres. Inset: The substrate selectivity loops of LbNOX (containing Asp177, Ala178, and Pro184) and glutathione reductase—NADPH complex (containing Arg198 and Arg204) (PDB ID 1GET). Backbone atoms of NAD(P)H binding domains of each protein (residues 147-247 of LbNOX and 167-268 of glutathione reductase) were superimposed using the least square algorithm of COOT. Note that Arg198 and Arg204 of glutathione reductase, which tightly bind the phosphate moiety of NADPH, are replaced in LbNOX with Ala178 and Pro184, respectively. Negatively charged side chain of Asp177 in LbNOX replaces the neutral Val197 of glutathione reductase.
Recombinant LbNOX activity was monitored by following the decrease of the absorbance of NAD(P)H at […] using CARY® 100 spectrophotometer (Agilent, CA). A typical reaction mixture contained 2 μM FAD in 0.5 ml of the assay buffer (50 mM Na2HPO4, pH 7.5, 150 mM NaCl) and was incubated for 4 min at 37° C. before NAD(P)H (2-600 μM) and enzyme (0.08-6.8 μg) were added. Extinction coefficient (ε340=6.2 mM^−1 cm^−1) was used to calculate NAD(P)H oxidase activity. Simultaneous monitoring of oxygen consumption and NADH fluorescence was performed using a custom-built fluorimeter. In our setup the REDEYE™ oxygen patch (OceanOptics) was installed in a cuvette and the optical probe was connected to a fluorimeter. Oxygen causes quenching of the REDEYE™ patch fluorescence which allows to monitor the partial pressure of oxygen. In our experiments 0.5 ml of the assay buffer was preincubated at 28° C. before NADH (40-1500 μM) and LbNOX (0.1-2 μg) were added.

HeLa cells = test: Oxygen consumption rate (OCR), XF24 extracellular flux analyzer; type: cell-based, human; conditions: for increase in oxygen consumption: resistance to antimycin: 1 μM antimycin (complex III inhibitor); for increase in oxygen consumption of HeLa cells: doxycycline-inducible expression
Experimental: Oxygen consumption rates (OCR) of HeLa cells expressing 5 bacterial NOXes (untargeted and targeted to mitochondria) and Luciferase under the control of doxycycline (DOX) inducible promoter (TRE3G) were measured with the XF24 Extracellular Flux Analyzer (Seahorse Bioscience, manufactured in 2008). Cells were seeded at 30-40×10^3 cells per well in XF24 24-well cell culture microplates in 200 μl of DMEM (DMEM (US Biological, […]), 3.7 g/L NaHCO3 and 10% dialyzed FBS (Life Technologies, 26400-044) and were incubated at 37° C. in 5% CO2 incubator. Media was replaced the next day with 1 ml per well and doxycycline (final concentration -300 ng/ml, prepared in water) or water were added to the corresponding wells to induce protein expression. Twenty four hour later, media was replaced with 950 μL of the assay medium (no pyruvate DMEM (US Biological, […]), 15.9 mg/L phenol red, 10% dialyzed FBS (Life Technologies, 26400-044) and 25 mM HEPES-KOH, pH 7.4) and plates were introduced into the […] Extracellular Flux Analyzer for experimental measurements. Each measurement was performed over 4 min after a 2-min mix and a 2-min wait period. Basal measurements were collected 8 times and 4 measurements were collected after injection of oligomycin (final concentration 1 μM), followed by 4 measurements after addition of antimycin A (final concentration 1 μM) from the XF24 ports in 50 μL of the assay medium. Cells were seeded at 30-40×10^3 per well in XF24 24-well cell culture microplates in 200 μl of normal growth media (DMEM (US Biological, […]), 3.7 g/L NaHCO3 and 10% dialyzed FBS (Life Technologies, 26400-044)) and were incubated at 37° C. in 5% CO2 incubator. For all experiments the next day media was renewed with 1 ml per well and doxycycline (final concentration -300 ng/ml) or water were added. Twenty four hours later, media was changed to no pyruvate media (no pyruvate DMEM (US Biological, […]), 15.9 mg/L phenol red, 3.7 g/L NaHCO3 and 10% dialyzed FBS (Life Technologies, 26400-044)). Two hours later, media was replaced with 950 μL of the assay medium (no pyruvate DMEM (US Biological, […]), 15.9 mg/L phenol red, 10% dialyzed FBS (Invitrogen, 26400-044) and 25 mM HEPES-KOH, pH 7.4) and OCR was measured. Each measurement was performed over 4 min after a 2-min mix and a 2-min wait period. Basal measurements were collected 8 times and 4 measurements were collected after injection of each drug: antimycin A (final concentration 1 μM) or piericidin (final concentration 1 μM). Three measurements before and after addition of the drug were averaged and normalized by the cell number.

| Molecule | substrate selectivity NADH vs NADPH [1] | specific activity ([1]; after enterokinase cleavage of N-terminal Hisx6 tag) [µmol/min/mg] | specific activity ([1]; fully reconstituted LbNOX (holoLbNOX), peak from Source 15Q, N-terminal Hisx6 tag present) [µmol/min/mg] | Km ([1]; recombinant enzyme, read-out: apparent KM for NADH) [µM] | increase in oxygen consumption: resistance to antimycin (HeLa cells) | increase in oxygen consumption: resistance to piericidin (HeLa cells; 1 μM piericidin (complex I inhibitor)) | increase in oxygen consumption of HeLa cells (HeLa cells) [fold] | kcat with NADH [1] [s⁻¹] |
| --- | --- | --- | --- | --- | --- | --- | --- | --- |
| LbNOX: water-forming NADH oxidase endogenous to Lactobacillus brevis; tested with C-terminal FLAG tag (protein, listed as Lactobacillus brevis, C-terminal FLAG tag) KVTVVGCTHAGTFAIKQILAEHPDAEVTVYERNDVISFLSCGIALYLGGKVADPQGLFYSSPEELQKLGANVQMNHNVLAIDPDQKTVTVEDLTNHAQTTESYDKLVMTSGSWPIVPKIPGIDSDRVKLCKNWAHAQALIEDAKEAKRITVIGAGYIGAELAEAYSTTGHDVTLIDAMARVMPKYFDADFTDVIEQDYRDHGVQLALGETVESFTDSATGLTIKTDKNSYETDLAILCIGFRPNTDLLKGKVDMAPNGAIITDDYMRSSNPDIFAAGDSAAVHYNPTHQNAYIPLATNAVRQGILVGKNLVKPTVKYMGTQSSSGLALYDRTIVSTGLTLAAAKQQGLNAEQVIVEDNYRPEFMPSTEPVLMSLVFDPDTHRILGGALMSKYDVSQSANTLSVCIQNENTIDDLAMVDMLFQPNFDRPFNYLNILAQAAQAKVAQSVNA | selectively oxidizes NADH over NADPH | ~750 | ~550 | 69 ± 3 | resistant | resistant | 1.6 |  |
| TPNOX: NADPH-specific quintuple mutant (G159A/D177A/A178R/M179S/P184R) of LbNOX (protein) KVTVVGCTHAGTFAIKQILAEHPDAEVTVYERNDVISFLSCGIALYLGGKVADPQGLFYSSPEELQKLGANVQMNHNVLAIDPDQKTVTVEDLTNHAQTTESYDKLVMTSGSWPIVPKIPGIDSDRVKLCKNWAHAQALIEDAKEAKRITVIGAGYIAAELAEAYSTTGHDVTLIARSARVMRKYFDADFTDVIEQDYRDHGVQLALGETVESFTDSATGLTIKTDKNSYETDLAILCIGFRPNTDLLKGKVDMAPNGAIITDDYMRSSNPDIFAAGDSAAVHYNPTHQNAYIPLATNAVRQGILVGKNLVKPTVKYMGTQSSSGLALYDRTIVSTGLTLAAAKQQGLNAEQVIVEDNYRPEFMPSTEPVLMSLVFDPDTHRILGGALMSKYDVSQSANTLSVCIQNENTIDDLAMVDMLFQPNFDRPFNYLNILAQAAQAKVAQSVNA |  |  |  |  | resistant |  | 1.7 | 3.2 ± 0.2 |
